Target: T1, MCM2-7 protein complex (Xenopus egg extracts) (Xenopus, UniProt P55861 1-886; P49739 1-807; P30664 1-863; P55862 1-735; Q5FWY4 1-821; Q91876 …)
T1 construct: Endogenous complex of the six proteins MCM2 to MCM7; also called MCM2-7 proteins; MCM2-7 complex
Assay: co-immunoprecipitation with MCM3 antibody from S phase egg extracts, western blot with MCM8 antibody

- binding result: no binding
B1: Xenopus MCM8 protein (enzyme)
chain: MSQGWRGGSGGWRGGGGGGGNPYAGAWRGRPWRGRGQGGTWSRNNGRDPVCFAPPKPQLTQTTLDKYIPYKGWKLYFSEAYSDNSPFLEKVRAFEKFFKKQIELYDKDEIERKGSILVDYKELLQDEDLSASIPLSSELKDMPEKVLECMGLAIHQVLTKDLETHAADLQQQEGLRTEEAPIVNVPFIHARVFNYDTLTSLKNLRASLYGKYVALRGTVVRVGNIKPLCTKMAFSCNMCGDIQCFPLPDGKYTVPTKCPVPECRGRSFTANRSSPLTVTVDWQTIKVQELMSDDQREAGRIPRTVECELIQDLVDSCVPGDMITVTGIVKVSNTRDGGFKNKNNKCMFLLYIEANSVSNSKGQKGKSTEDSGNHGASMDFSLKDLYAIQEIQSQENLFQLIVNSLCPTIYGHELVKAGLSLALFGGCQKYADDKNRIPIRGDPHILVVGDPGLGKSQMLQAVCNVAPRGVYVCGNTTTTSGLTVTLSRDTTTGDFGLEAGALVLGDQGICGIDEFDKMGNQHQALLEAMEQQSISLAKAGIVCSLPARTSIIAAANPVGGHYNKGKTVSENLKMGSALLSRFDLVFILVDTPNEDHDHLLSEHVMAMRSGAKEIQSVDITRINTQNSNTSILEVPSERPLGERLKLRTGEHFDALPHQLLRKFVGYARQYVHPSLSPDAAQILQDFYLELRKQNQGIDSTPITTRQLESLIRLTEARARLELREKATKEDAEEVVQIMKYSLLGTFSDEFGKLDFQRSQHGSGMSNRSKAKKFVSALNRVAEQTYNNLFEFQQLRQIARELQIQVIDFEAFIGSLNDQGYLLKKGPRVFQLQTM
notes: Full-length protein: translated in vitro in rabbit reticulocytes, or the endogenous protein of Xenopus egg extracts; also called 90 kDa polypeptide

From patent publication US20090208938A1 (CENTRE NATIONAL DE LA RECHERCHE SCIENTIFIQUE, published 2009)
